Measurements taken from paper PMC3791872, “Ciprofloxacin is an inhibitor of the Mcm2-7 replicative helicase”.

Legend:
Experiment in all cases: double filter binding; 1 mM ciprofloxacin (modest effect); Double filter binding, 150 nM helicase hexamer, 4 nM ssDNA, 20 min inhibitor preincubation at 37 C; binding buffer not stated in the material (helicase buffer:)
Mcm467 = Mcm467 (UniProt P30665;P53091;P38132 1-933;1-1017;1-845); conditions: chain copies: 2;2;2; label: 5'-32P; single strand
Mcm2-7 = Mcm2-7 (UniProt P29469;P24279;P30665;P29496;P53091;P38132 1-868;1-971;1-933;1-775;1-1017;1-845); conditions: copies: 1;1;1;1;1;1; label: 5'-32P; single strand
[1] = target: SV40 large T antigen (TAg) (SV40, UniProt P03070 1-708); conditions: chain copies: 6; label: 5'-32P; single strand
SV40 large T antigen (TAg), sequence (P03070 whole entry): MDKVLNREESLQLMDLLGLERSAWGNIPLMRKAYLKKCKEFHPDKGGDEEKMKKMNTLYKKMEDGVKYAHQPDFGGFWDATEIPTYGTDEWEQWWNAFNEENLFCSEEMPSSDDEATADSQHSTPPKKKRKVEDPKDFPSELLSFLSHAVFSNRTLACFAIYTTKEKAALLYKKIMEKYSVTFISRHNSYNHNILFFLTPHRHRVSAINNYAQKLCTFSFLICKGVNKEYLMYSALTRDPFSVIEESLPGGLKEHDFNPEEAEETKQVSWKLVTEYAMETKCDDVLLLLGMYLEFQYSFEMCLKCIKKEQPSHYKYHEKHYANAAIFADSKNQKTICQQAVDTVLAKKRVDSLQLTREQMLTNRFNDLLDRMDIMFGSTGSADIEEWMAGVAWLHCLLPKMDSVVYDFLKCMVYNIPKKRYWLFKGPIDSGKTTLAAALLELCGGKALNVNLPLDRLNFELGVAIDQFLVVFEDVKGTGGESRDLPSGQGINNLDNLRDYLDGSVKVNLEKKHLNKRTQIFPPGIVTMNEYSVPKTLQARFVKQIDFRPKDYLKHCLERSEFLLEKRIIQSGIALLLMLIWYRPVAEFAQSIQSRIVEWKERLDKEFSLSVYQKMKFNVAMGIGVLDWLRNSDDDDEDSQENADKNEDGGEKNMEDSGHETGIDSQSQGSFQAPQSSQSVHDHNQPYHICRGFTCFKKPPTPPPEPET

Measured: binding result

Mcm467, sequence (P30665 whole entry, chain 1 of 3): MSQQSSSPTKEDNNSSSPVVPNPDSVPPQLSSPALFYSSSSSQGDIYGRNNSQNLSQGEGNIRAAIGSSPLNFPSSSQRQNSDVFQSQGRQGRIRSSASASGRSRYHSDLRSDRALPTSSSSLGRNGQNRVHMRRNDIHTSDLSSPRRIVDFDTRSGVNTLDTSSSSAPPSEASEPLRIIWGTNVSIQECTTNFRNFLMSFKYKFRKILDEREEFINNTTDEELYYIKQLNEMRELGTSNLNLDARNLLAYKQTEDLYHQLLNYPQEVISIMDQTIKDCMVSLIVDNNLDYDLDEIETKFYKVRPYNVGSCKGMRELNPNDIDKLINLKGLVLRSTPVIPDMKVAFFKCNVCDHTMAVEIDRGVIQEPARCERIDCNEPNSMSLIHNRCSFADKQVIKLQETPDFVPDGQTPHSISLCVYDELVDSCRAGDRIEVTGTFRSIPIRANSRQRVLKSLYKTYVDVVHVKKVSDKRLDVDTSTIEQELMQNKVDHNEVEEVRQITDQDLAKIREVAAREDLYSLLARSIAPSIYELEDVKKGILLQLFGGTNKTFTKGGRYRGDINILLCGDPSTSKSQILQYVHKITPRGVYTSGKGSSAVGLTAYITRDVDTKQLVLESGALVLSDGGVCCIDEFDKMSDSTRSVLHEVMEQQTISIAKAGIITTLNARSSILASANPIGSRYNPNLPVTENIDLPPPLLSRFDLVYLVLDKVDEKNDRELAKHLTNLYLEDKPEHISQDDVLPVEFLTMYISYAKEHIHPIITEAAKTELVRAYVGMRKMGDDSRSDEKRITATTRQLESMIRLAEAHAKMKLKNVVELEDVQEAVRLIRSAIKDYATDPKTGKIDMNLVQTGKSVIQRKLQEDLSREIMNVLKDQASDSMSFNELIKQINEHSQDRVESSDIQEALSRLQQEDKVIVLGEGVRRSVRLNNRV
Mcm467, sequence (P53091 whole entry, chain 2 of 3): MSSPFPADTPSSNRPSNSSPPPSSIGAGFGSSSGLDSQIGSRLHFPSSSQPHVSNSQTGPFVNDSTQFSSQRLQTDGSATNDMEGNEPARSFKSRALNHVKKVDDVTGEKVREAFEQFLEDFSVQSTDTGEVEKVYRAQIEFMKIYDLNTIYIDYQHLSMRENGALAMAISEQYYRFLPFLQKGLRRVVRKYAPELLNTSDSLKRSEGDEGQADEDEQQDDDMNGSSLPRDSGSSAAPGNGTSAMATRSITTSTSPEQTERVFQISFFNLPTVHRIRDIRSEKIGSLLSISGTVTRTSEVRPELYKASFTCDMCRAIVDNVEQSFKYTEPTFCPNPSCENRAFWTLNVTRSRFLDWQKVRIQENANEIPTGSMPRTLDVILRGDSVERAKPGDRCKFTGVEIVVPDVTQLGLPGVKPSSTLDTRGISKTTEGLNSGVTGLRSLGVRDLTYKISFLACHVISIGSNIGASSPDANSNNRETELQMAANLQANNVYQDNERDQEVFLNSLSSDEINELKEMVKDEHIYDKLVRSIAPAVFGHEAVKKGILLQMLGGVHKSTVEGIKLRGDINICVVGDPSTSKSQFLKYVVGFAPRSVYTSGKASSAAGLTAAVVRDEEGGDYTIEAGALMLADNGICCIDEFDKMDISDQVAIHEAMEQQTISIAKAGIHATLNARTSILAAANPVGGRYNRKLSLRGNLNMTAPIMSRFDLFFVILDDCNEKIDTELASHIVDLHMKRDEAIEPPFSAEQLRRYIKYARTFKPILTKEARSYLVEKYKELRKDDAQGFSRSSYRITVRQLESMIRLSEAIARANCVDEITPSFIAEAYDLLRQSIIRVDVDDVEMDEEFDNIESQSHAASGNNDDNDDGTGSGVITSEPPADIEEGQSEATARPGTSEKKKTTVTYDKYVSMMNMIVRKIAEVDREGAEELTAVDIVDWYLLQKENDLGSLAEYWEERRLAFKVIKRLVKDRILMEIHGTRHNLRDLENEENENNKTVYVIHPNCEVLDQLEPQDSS
Mcm467, sequence (P38132 whole entry, chain 3 of 3): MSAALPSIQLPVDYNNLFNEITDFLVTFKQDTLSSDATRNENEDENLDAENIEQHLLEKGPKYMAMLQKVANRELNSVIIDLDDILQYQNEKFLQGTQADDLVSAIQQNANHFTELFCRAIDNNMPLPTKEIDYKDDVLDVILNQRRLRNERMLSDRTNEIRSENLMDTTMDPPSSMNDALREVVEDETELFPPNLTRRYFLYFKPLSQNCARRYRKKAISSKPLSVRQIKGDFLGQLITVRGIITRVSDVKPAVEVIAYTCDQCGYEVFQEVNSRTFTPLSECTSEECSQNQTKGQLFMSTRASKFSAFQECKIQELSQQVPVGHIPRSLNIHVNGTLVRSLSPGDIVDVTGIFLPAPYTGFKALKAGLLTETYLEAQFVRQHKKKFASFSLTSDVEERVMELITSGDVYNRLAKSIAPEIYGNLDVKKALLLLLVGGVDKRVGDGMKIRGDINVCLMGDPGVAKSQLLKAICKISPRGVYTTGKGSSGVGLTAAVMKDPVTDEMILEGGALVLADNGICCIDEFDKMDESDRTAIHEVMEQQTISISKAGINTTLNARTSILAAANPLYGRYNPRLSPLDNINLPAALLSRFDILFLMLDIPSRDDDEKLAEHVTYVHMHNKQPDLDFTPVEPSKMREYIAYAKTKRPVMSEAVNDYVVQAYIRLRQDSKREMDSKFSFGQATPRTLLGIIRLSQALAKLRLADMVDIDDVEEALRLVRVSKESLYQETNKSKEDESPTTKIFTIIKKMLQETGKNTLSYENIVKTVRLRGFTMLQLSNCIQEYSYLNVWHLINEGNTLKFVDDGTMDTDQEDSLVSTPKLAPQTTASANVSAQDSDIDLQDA

B1: oligo 826 (ssDNA)
DNA: TGTCTAATCCCGAAAGGCCCTGCCACTGAAATCAACACCTAAAGCATTGA
binds: Mcm467 | Mcm2-7 | [1]
